Assay results: patent publication US20250002610A1 (Genmab, published 2025)

B1: BisG1-FAPα-FERL/b12-FERR (bispecific antibody, human IgG1, kappa)
heavy 1: EVQLLESGGGLVQPGGSPRLSCEASGFTFSSYALSWVRQAPGKGLEWVSAISGSGGGRYYADSVKGRFTISRDNSKNTLFLQMNSLRAEDTAVYYCAKEGYSSSGTYWDHWGQGTLVTVSSASTKGPSVFPLAPSSKSTSGGTAALGCLVKDYFPEPVTVSWNSGALTSGVHTFPAVLQSSGLYSLSSVVTVPSSSLGTQTYICNVNHKPSNTKVDKRVEPKSCDKTHTCPPCPAPEFERGPSVFLFPPKPKDTLMISRTPEVTCVVVDVSHEDPEVKFNWYVDGVEVHNAKTKPREEQYNSTYRVVSVLTVLHQDWLNGKEYKCKVSNKALPAPIEKTISKAKGQPREPQVYTLPPSREEMTKNQVSLTCLVKGFYPSDIAVEWESNGQPENNYKTTPPVLDSDGSFLLYSKLTVDKSRWQQGNVFSCSVMHEALHNHYTQKSLSLSPG
light 1: AIQMTQSPSSVSASVGDRVTITCRASQGVSSWLAWYQQKPGRAPKLLIYVASTLQSGVPSRFSGSGSGTDFTLTINSLQPEDFATYYCQQANSFPPTFGQGTRLEMKRTVAAPSVFIFPPSDEQLKSGTASVVCLLNNFYPREAKVQWKVDNALQSGNSQESVTEQDSKDSTYSLSSTLTLSKADYEKHKVYACEVTHQGLSSPVTKSFNRGEC
heavy 2: QVQLVQSGAEVKKPGASVKVSCQASGYRFSNFVIHWVRQAPGQRFEWMGWINPYNGNKEFSAKFQDRVTFTADTSANTAYMELRSLRSADTAVYYCARVGPYSWDDSPQDNYYMDVWGKGTTVIVSSASTKGPSVFPLAPSSKSTSGGTAALGCLVKDYFPEPVTVSWNSGALTSGVHTFPAVLQSSGLYSLSSVVTVPSSSLGTQTYICNVNHKPSNTKVDKRVEPKSCDKTHTCPPCPAPEFERGPSVFLFPPKPKDTLMISRTPEVTCVVVDVSHEDPEVKFNWYVDGVEVHNAKTKPREEQYNSTYRVVSVLTVLHQDWLNGKEYKCKVSNKALPAPIEKTISKAKGQPREPQVYTLPPSREEMTKNQVSLTCLVKGFYPSDIAVEWESNGQPENNYKTTPPVLDSDGSFFLYSRLTVDKSRWQQGNVFSCSVMHEALHNHYTQKSLSLSPG
light 2: EIVLTQSPGTLSLSPGERATFSCRSSHSIRSRRVAWYQHKPGQAPRLVIHGVSNRASGISDRFSGSGSGTDFTLTITRVEPEDFALYYCQVYGASSYTFGQGTKLERKRTVAAPSVFIFPPSDEQLKSGTASVVCLLNNFYPREAKVQWKVDNALQSGNSQESVTEQDSKDSTYSLSSTLTLSKADYEKHKVYACEVTHQGLSSPVTKSFNRGEC
B2: IgG1-b12 (antibody)
heavy: not shown
light: B1 light 2
notes: HIV gp120 antibody b12 with wild-type IgG1 Fc; also called IgG-b12

What was measured:
human DR4HsECD-FcHisCtag = molecular target: T1, human DR4HsECD-FcHisCtag (human); experiment: BLI, antigen captured on anti-Penta-HIS sensors
T1 construct: also called recombinant human DR4
T1 sequence (chain, as listed by the source limits assumed): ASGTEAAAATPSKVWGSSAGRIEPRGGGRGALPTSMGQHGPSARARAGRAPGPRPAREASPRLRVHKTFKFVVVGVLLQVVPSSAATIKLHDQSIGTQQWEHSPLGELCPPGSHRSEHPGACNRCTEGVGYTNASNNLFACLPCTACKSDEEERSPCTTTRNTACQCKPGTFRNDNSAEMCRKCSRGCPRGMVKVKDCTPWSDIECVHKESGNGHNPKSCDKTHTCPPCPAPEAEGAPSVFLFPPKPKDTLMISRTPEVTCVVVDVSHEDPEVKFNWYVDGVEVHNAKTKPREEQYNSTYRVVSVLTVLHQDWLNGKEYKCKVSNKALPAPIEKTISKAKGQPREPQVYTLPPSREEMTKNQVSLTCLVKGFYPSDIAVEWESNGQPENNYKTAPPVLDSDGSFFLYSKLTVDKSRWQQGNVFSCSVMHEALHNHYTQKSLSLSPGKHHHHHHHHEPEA
Method: The binding affinity of BisG1-FAPα-FERL/DR4-FERR, BisG1-b12-FERL/DR4-FERR and control BisG1-FAPα-FERL/b12-FERR to recombinant human and cynomolgus monkey DR4 protein was determined using label-free biolayer interferometry on an Octet HTX instrument (Sartorius).
The protocol detailed in Example 5 was used with the following differences: anti-Penta-HIS biosensors (Sartorius, Cat #18-5120) were used; the sensors were preconditioned by exposure to 10 mM glycine (Sigma-Aldrich, Cat #15527) buffer pH 1.5 for 5 s, followed by neutralization in Sample Diluent (Sartorius, Cat #18-1104) for 5 s; both steps were repeated 2 times; the sensors were loaded with 50 nM human DR4HsECD-FcHisCtag (SEQ ID NO: 66), or cynomolgus DR4MfECD-FcHisCtag (SEQ ID NO: 67), for 600 s; the dissociation time was 1,000 s; The window of interest for the dissociation time was set at 100 s for the cynomolgus antigen and at 1,000 s for the human antigen.

[1] = molecular target: T2, FcγRIIIa-V158 (CD16a Protein, Human, Recombinant (176 Val, His & AVI Tag)) (human, UniProt P08637 17-208); experiment: SPR (Biacore 8K), His-tagged FcγRIIIa-V158 captured on an anti-His chip, antibody as analyte, endpoint response against concentration
T2 construct: Bought reagent; not shown: His & AVI tag
T2 sequence (P08637 17-208 F176V limits assumed): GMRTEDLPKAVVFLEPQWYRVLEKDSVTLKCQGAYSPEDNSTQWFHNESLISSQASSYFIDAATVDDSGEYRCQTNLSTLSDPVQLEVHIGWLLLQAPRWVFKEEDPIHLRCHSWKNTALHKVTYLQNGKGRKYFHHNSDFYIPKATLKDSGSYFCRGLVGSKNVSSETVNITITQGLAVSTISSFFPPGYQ
Method: Binding of BisG1-FAPα-FERL/DR4-FERR to immobilized human His-tagged FcγRs and FcRn was analyzed by SPR using a Biacore 8K SPR system (Cytiva). To this end, anti-His antibodies were covalently immobilized on the surface of Biacore Series S Sensor Chip CM5 (Cytiva, Cat. #29104988) using the Amine Coupling Kit (Cytiva, Cat. #BR100050) and a His Capture Kit (Cytiva, Cat. #29234602) according to the manufacturer's instructions. To assess antibody binding to immobilized human FcγRs, aliquots of the recombinant His-tagged FcγR proteins (Table 24) were diluted in HBS EP+Buffer pH 7.4 (Cytiva, Cat. #BR100669) and used to capture the FcγR proteins on the surface of the anti-His antibody-coated sensors using a flow rate of 10 μL/min and a contact time of 60 s. Captured levels ranged from 434 to 592 RU. After three start-up cycles of HBS-EP+Buffer, concentration ranges of BisG1-FAPα-FERL/DR4-FERR or IgG1-b12 antibodies (Table 25) were injected to generate binding curves on FcγR-captured sensors (active surface). For each antibody sample, a parallel flow cell without captured FcγRs was included (reference surface), which was used for RU background correction.
All sensorgrams were subtracted by the signal of the third start-up cycle with buffer only (mock analyte). […]

Binder | binding result (human DR4HsECD-FcHisCtag) | binding result [1]
B1 | no binding (tested: 800 nM) | –
B2 | – | binds
